The text below walks through data of US20080026996A1, “Selective Vpac2 Receptor Reptide Agonists” (ELI LILLY AND COMPANY, priority 2004, published 2008).

Where no end group is shown, it is not given here. [ ]: non-standard residue; d: D form. The star is where a group is joined. hArg = N=C(N)NCCCC[C@H](N)C(=O)O; Nle = CCCC[C@H](N)C(=O)O; Orn = NCCC[C@H](N)C(=O)O; Hexanoyl = CCCCCC(=O)*; Aib = CC(C)(N)C(=O)O

Holding throughout (test): cell-based or functional assay
One test has as its target T1, rat VPAC2 receptor (rat, UniProt P35000 23-437).
T1 sequence (looked up): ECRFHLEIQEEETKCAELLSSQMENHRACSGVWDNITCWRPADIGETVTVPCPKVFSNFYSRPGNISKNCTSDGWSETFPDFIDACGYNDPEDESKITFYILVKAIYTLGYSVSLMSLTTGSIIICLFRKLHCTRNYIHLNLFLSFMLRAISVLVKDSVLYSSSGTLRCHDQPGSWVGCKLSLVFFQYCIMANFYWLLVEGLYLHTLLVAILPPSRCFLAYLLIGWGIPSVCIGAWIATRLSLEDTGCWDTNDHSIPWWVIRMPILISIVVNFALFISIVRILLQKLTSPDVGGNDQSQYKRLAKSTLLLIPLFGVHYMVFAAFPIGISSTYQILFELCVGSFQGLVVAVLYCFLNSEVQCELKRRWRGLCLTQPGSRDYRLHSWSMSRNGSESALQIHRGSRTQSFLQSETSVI

The next test deals with T2, rat VPAC1 receptor (rat, UniProt P30083 31-459).
T2 sequence (looked up): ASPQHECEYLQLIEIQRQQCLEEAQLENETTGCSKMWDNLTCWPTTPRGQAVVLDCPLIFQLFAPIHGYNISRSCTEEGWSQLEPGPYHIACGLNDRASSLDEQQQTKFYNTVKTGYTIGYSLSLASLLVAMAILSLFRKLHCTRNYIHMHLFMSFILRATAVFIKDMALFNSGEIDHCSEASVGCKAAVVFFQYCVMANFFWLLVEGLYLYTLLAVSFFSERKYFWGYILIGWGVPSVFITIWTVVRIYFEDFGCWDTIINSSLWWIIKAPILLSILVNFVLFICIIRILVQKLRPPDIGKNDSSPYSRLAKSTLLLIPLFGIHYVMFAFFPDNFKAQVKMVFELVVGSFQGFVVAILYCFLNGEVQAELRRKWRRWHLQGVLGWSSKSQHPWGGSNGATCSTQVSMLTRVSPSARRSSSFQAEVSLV

The target in a further test is T3, human VPAC2 receptor (human, UniProt P41587 24-438).
T3 sequence (looked up): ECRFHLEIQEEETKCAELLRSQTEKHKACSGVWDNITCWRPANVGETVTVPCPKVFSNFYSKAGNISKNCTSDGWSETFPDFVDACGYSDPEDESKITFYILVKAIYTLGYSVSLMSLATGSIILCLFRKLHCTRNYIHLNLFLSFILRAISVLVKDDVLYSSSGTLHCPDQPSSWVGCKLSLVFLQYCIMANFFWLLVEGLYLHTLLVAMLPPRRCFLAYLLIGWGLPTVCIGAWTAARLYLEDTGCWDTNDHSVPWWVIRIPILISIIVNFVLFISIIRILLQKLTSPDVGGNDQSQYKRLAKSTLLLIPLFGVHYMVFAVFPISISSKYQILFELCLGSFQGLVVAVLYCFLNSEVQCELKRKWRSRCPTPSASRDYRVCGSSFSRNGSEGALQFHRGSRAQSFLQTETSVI

B1: P240 (peptide)
peptide: Hexanoyl-HSDAVFTDNYTRL[Aib]KQLAA[Aib]KYLQSIKNKRYGGPSSGAPPPS
modifications: ends and bridges not checked
As to B1, the figures for the “EC50 cAMP, DiscoveRx” value in the test with rat VPAC2 receptor and with rat VPAC1 receptor were 360 pM and 24500 pM, respectively. Also, in the test with human VPAC2 receptor, the “EC50 cAMP, Alpha Screen” value was found to be 510 pM.

B2: P242 (peptide)
peptide: Hexanoyl-HSDAVFTDNYTRL[Aib]KQVAA[Aib]KYLQSIKNKRYGGPSSGAPPPS
modifications: ends and bridges not checked
Regarding B2, the “EC50 cAMP, DiscoveRx” value with rat VPAC2 receptor stood at 460 pM; with rat VPAC1 receptor, 72200 pM. Also, in the test with human VPAC2 receptor, the “EC50 cAMP, Alpha Screen” value was 800 pM.

B3: P314 (peptide)
peptide: Hexanoyl-HSEAVFTENYTRLR[Aib]QVAA[Aib]KYLQSIKNKRYGGPSSGAPPPS
modifications: ends and bridges not checked
In the case of B3, the “EC50 cAMP, DiscoveRx” value in the test with rat VPAC2 receptor was 120 pM; in the test with rat VPAC1 receptor it was 29200 pM. The “EC50 cAMP, Alpha Screen” value with human VPAC2 receptor turned out to be 220 pM.

B4: P322 (peptide)
peptide: Hexanoyl-HSDAVFTDNYTRLR[Aib]QIAA[Aib]KYLQSIKNKRYGGPSSGAPPPS
modifications: ends and bridges not checked
In the case of B4, the “EC50 cAMP, DiscoveRx” value amounted to 40 pM with rat VPAC2 receptor and 500 pM with rat VPAC1 receptor. In the test with human VPAC2 receptor, the “EC50 cAMP, Alpha Screen” value stood at 220 pM.

B5: P318 (peptide)
peptide: Hexanoyl-HSDAVFTDNYTRLK[Aib]QVAA[Aib]KYLQSIKNKRYGGPSSGAPPPS
modifications: ends and bridges not checked
As for B5, the “EC50 cAMP, DiscoveRx” value is 90 pM with rat VPAC2 receptor and 9960 pM in the test with rat VPAC1 receptor. For the same molecule, the “EC50 cAMP, Alpha Screen” value with human VPAC2 receptor was found to be 320 pM.

B6: P323 (peptide)
peptide: Hexanoyl-HSDAVFTDNYTRLR[Aib]QKAA[Aib]KYLQSIKNKRYGGPSSGAPPPS
modifications: ends and bridges not checked
As to B6, the “EC50 cAMP, DiscoveRx” value is 70 pM in the test with rat VPAC2 receptor and 4410 pM with rat VPAC1 receptor. In addition, the “EC50 cAMP, Alpha Screen” value with human VPAC2 receptor was 230 pM.

B7: P321 (peptide)
peptide: Hexanoyl-HSDAVFTDNYTRLR[Aib]KVAA[Aib]KYLQSIKNKRYGGPSSGAPPPS
modifications: ends and bridges not checked
As for B7, the “EC50 cAMP, DiscoveRx” value in the test with rat VPAC2 receptor worked out at 40 pM; with rat VPAC1 receptor it was 110 pM. Besides, the “EC50 cAMP, Alpha Screen” value with human VPAC2 receptor came to 380 pM.

B8: P315 (peptide)
peptide: Hexanoyl-HSDAVFTDQYTRLR[Aib]QVAA[Aib]KYLQSIKQKRYGGPSSGAPPPS
modifications: ends and bridges not checked
On to B8, for which the entries for the “EC50 cAMP, DiscoveRx” value with rat VPAC2 receptor and in the test with rat VPAC1 receptor were 40 pM and 1180 pM, respectively. Also, the “EC50 cAMP, Alpha Screen” value in the test with human VPAC2 receptor turned out to be 190 pM.

B9: P338 (peptide)
peptide: HSDAVFTDNYTXLRXQVAAXKYLQSIXNXXYGGPSSGAPPPS
modifications: N-terminal hexanoyl (C6); hR at 12, 27, 29, 30; Aib at 15, 20
For B9, the results for the “EC50 cAMP, DiscoveRx” value with rat VPAC2 receptor and in the test with rat VPAC1 receptor were 70 pM and 5160 pM, respectively. The “EC50 cAMP, Alpha Screen” value with human VPAC2 receptor was 460 pM.

B10: P169 (peptide)
peptide: Hexanoyl-HSDAVFTDNYTRLRKQVAA[Aib]KYLQSIKNKRYGGPSSGAPPPS
modifications: ends and bridges not checked
As for B10, the figures for the “EC50 cAMP, DiscoveRx” value with rat VPAC2 receptor and with rat VPAC1 receptor were 70 pM and 1320 pM, respectively. Also, the “EC50 cAMP, Alpha Screen” value with human VPAC2 receptor was 140 pM.

B11: P352 (peptide)
peptide: HSDAVFTDNYTRLRXQVAAXKYLQSIXXGGPSSGAPPPS
modifications: N-terminal hexanoyl (C6); Aib at 15, 20; Orn at 27, 28
Turning to B11, the “EC50 cAMP, DiscoveRx” value with rat VPAC2 receptor amounted to 90 pM; with rat VPAC1 receptor, 4350 pM. Besides, the “EC50 cAMP, Alpha Screen” value in the test with human VPAC2 receptor came to 140 pM.

B12: P326 (peptide)
peptide: HSDAVFTDNYTXLRXQVAAXKYLQSIXNXGGPSSGAPPPS
modifications: N-terminal hexanoyl (C6); Orn at 12, 27, 29; Aib at 15, 20
As to B12, the “EC50 cAMP, DiscoveRx” value with rat VPAC2 receptor is 90 pM; in the test with rat VPAC1 receptor it was 4530 pM. Besides, the “EC50 cAMP, Alpha Screen” value with human VPAC2 receptor worked out at 210 pM.

B13: P264 (peptide)
peptide: Hexanoyl-HSDAVFTDNYTRLR[Aib]QVAAK[Aib]YLQSIKNKRYGGPSSGAPPPS
modifications: ends and bridges not checked
Regarding B13, the “EC50 cAMP, DiscoveRx” value with rat VPAC2 receptor was 100 pM; with rat VPAC1 receptor it was 4010 pM. In the test with human VPAC2 receptor, the “EC50 cAMP, Alpha Screen” value worked out at 100 pM.

B14: P284 (peptide)
peptide: Hexanoyl-HSDAVFTDNYTRLR[Aib]QLAAK[Aib]YLQSIKNKRYGGPSSGAPPPS
modifications: ends and bridges not checked
B14: the “EC50 cAMP, DiscoveRx” value in the test with rat VPAC2 receptor was 70 pM; with rat VPAC1 receptor, 440 pM. Further, the “EC50 cAMP, Alpha Screen” value in the test with human VPAC2 receptor came to 180 pM.

B15: P305 (peptide)
peptide: Hexanoyl-HSDAVFTDNYTRL[hArg]KQVAAKKYLQSIKNKRYGGPSSGAPPPS
modifications: ends and bridges not checked
In the case of B15, the “EC50 cAMP, DiscoveRx” value was 40 pM with rat VPAC2 receptor and 3710 pM with rat VPAC1 receptor. For the same molecule, in the test with human VPAC2 receptor, the “EC50 cAMP, Alpha Screen” value came out at 170 pM.

B16: P308 (peptide)
peptide: Hexanoyl-HSDAVFTDNYTRL[hArg][Orn]QVAAKKYLQSIKNKRYGGPSSGAPPPS
modifications: ends and bridges not checked
On to B16, for which the “EC50 cAMP, DiscoveRx” value with rat VPAC2 receptor is 90 pM; in the test with rat VPAC1 receptor it was 9740 pM. Besides, in the test with human VPAC2 receptor, the “EC50 cAMP, Alpha Screen” value came to 260 pM.

B17: P244 (peptide)
peptide: Hexanoyl-HSDAVFTDNYTRL[Aib]KQVAAK[Aib]YLQSIKNKRYGGPSSGAPPPS
modifications: ends and bridges not checked
Regarding B17, the “EC50 cAMP, DiscoveRx” value with rat VPAC2 receptor amounted to 1850 pM; in the test with rat VPAC1 receptor it was 127000 pM. In addition, the “EC50 cAMP, Alpha Screen” value in the test with human VPAC2 receptor came to 2030 pM.

B18: P325 (peptide)
peptide: Hexanoyl-HSDAVFTDNYTRLR[Aib]Q[Nle]AA[Aib]KYLQSIKNKRYGGPSSGAPPPS
modifications: ends and bridges not checked
With B18, the “EC50 cAMP, DiscoveRx” value in the test with rat VPAC2 receptor came out at 40 pM; with rat VPAC1 receptor, 1460 pM. The “EC50 cAMP, Alpha Screen” value in the test with human VPAC2 receptor is 240 pM.

B19: P167 (peptide)
peptide: Hexanoyl-HSDAVFTDNYTRL[Aib]KQVAAKKYLQSIKNKRYGGPSSGAPPPS
modifications: ends and bridges not checked
Turning to B19, the “EC50 cAMP, DiscoveRx” value with rat VPAC2 receptor stood at 240 pM; in the test with rat VPAC1 receptor it was 6880 pM. The “EC50 cAMP, Alpha Screen” value with human VPAC2 receptor was determined as 170 pM.

B20: P243 (peptide)
peptide: Hexanoyl-HSDAVFTDNYTRL[Aib]KQVAAQKYLQSIKNKRYGGPSSGAPPPS
modifications: ends and bridges not checked
With B20, the “EC50 cAMP, DiscoveRx” value with rat VPAC2 receptor stood at 790 pM; in the test with rat VPAC1 receptor, 157000 pM. Also, the “EC50 cAMP, Alpha Screen” value with human VPAC2 receptor is 280 pM.
